# Square brackets hold non-standard residues; d marks the D form. Ends that are not written are not given here. pS = N[C@@H](COP(=O)(O)O)C(=O)O
# Target: B56γ 31–380 (PP2A regulatory subunit B56) (UniProt Q13362 31-380)
# Experiment: ITC
Binder,Kd [nM],further results
KL[pS]PIIEDE [BubR1 peptide 668-KLpSPIIEDE-676],–,fold increase of affinity as salt is reduced from 300 mM to 150 mM: ~3.6 fold
KLEPIIEDE [BubR1 peptide 668-KLEPIIEDE-676],–,fold weaker affinity than KLpSPIIEDE: 2.4 fold
KL[pS]PIIED [BubR1 peptide 668-KLpSPIIED-675],–,fold weaker binding than the peptide with residue 676: ~1.7 fold
"TLSIKKL[pS]PIIEDDREADH [pS-BubR1 peptide, 663-TLSIKKL-pS-PIIEDDREADH-681 (mono-phosphorylated BubR1)]",600,–

# Further lines, with some results ahead:
Kd [nM],Binder,further results
2000,"KL[pS]PIIED[pS] [pSpS-BubR1 peptide, 668-KL-pS-PIIED-pS-676 (dually-phosphorylated BubR1)]",–
100,"RDIASKKPLL[pS]PIPELPEVPE [pS-RepoMan peptide, 581-RDIASKKPLL-pS-PIPELPEVPE-601 (mono-phosphorylated RepoMan)]",–
